Here are results for one molecule from CN113975385A (dated 2022).

The target in the test is T1, human CD20 on Raji cells (human, UniProt P11836 1-297).
T1 construct: whole, on cells; also called Raji (CD20+/CD3-细胞)
T1 sequence (looked up): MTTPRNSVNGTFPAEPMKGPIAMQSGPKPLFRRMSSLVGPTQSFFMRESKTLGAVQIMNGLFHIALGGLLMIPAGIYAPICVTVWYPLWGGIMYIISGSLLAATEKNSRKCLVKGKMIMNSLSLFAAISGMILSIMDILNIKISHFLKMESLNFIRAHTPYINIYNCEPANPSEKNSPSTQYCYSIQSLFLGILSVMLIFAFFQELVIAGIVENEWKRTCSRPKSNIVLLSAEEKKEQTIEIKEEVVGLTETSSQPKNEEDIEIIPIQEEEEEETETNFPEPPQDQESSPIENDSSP
Description: FACS, simultaneous binding: Calcein-AM Raji and FarRed Jurkat cells mixed 1:1, percent double-positive cells.

B1: W3278-U2T3.F18R-1.uIgG4.SP (bispecific antibody)
chain 1: QVQLQQPGAELVKPGASVKMSCKASGYTFTSYNMHWVKQTPGRGLEWIGAIYPGNGDTSYNQKFKGKATLTADKSSSTAYMQLSSLTSEDSAVYYCARSTYYGGDWYFNVWGAGTTVTVSAASTKGPSVFPLAPCSRSTSESTAALGCLVKDYFPEPVTVSWNSGALTSGVHTFPAVLQSSGLYSLSSVVTVPSSSLGTKTYTCNVDHKPSNTKVDKRVGGGGSGGGGSQVQLVQSGAEVKKPGSSVKVSCKASGFAFTDYYIHWVRQAPGQGLEWMGWISPGNVNTKYNENFKGRVTITADKSTSTAYMELSSLRSEDTAVYYCARDGYSLYYFDYWGQGTLVTVLEDLKNVFPPEVAVFEPSEAEISHTQKATLVCLATGFYPDHVELSWWVNGKEVHSGVCTDPQPLKEQPALQDSRYALSSRLRVSATFWQNPRNHFRCQVQFYGLSENDEWTQDRAKPVTQIVSAEAWGRYGPPCPPCPAPEFLGGPSVFLFPPKPKDTLMISRTPEVTCVVVDVSQEDPEVQFNWYVDGVEVHNAKTKPREEQFNSTYRVVSVLTVLHQDWLNGKEYKCKVSNKGLPSSIEKTISKAKGQPREPQVYTLPPCQEEMTKNQVSLWCLVKGFYPSDIAVEWESNGQPENNYKTTPPVLDSDGSFFLYSRLTVDKSRWQEGNVFSCSVMHEALHNHYTQKSLSLSLG
chain 2: QVQLQQPGAELVKPGASVKMSCKASGYTFTSYNMHWVKQTPGRGLEWIGAIYPGNGDTSYNQKFKGKATLTADKSSSTAYMQLSSLTSEDSAVYYCARSTYYGGDWYFNVWGAGTTVTVSAASTKGPSVFPLAPCSRSTSESTAALGCLVKDYFPEPVTVSWNSGALTSGVHTFPAVLQSSGLYSLSSVVTVPSSSLGTKTYTCNVDHKPSNTKVDKRVESKYGPPCPPCPAPEFLGGPSVFLFPPKPKDTLMISRTPEVTCVVVDVSQEDPEVQFNWYVDGVEVHNAKTKPREEQFNSTYRVVSVLTVLHQDWLNGKEYKCKVSNKGLPSSIEKTISKAKGQPREPQVCTLPPSQEEMTKNQVSLSCAVKGFYPSDIAVEWESNGQPENNYKTTPPVLDSDGSFFLVSRLTVDKSRWQEGNVFSCSVMHEALHNHYTQKSLSLSLG
chain 3: QIVLSQSPAILSASPGEKVTMTCRASSSVSYIHWFQQKPGSSPKPWIYATSNLASGVPVRFSGSGSGTSYSLTISRVEAEDAATYYCQQWTSNPPTFGGGTKLEIKRTVAAPSVFIFPPSDEQLKSGTASVVCLLNNFYPREAKVQWKVDNALQSGNSQESVTEQDSKDSTYSLSSTLTLSKADYEKHKVYACEVTHQGLSSPVTKSFNRGEC
light: DIVMTQSPDSLAVSLGERATINCKSSQSLLNSRTRKNYLAWYQQKPGQPPKLLIYWASTRQSGVPDRFSGSGSGTDFTLTISSLQAEDVAVYYCTQSHTLRTFGGGTKVEIKPDIQNPDPAVYQLRDSKSSDKSVCLFTDFDSQTQVSQSKDSDVYITDKCVLDMRSMDFKSNSAVAWSQKSDFACANAFQNSIIPEDTFFPSPESS
notes: WuXiBody format F18R-1, human IgG4 with S228P and knobs-into-holes; also called WBP3278 lead Ab; W3278 lead Ab
For the molecule B1, the binding result is reported as “binds”.
